What is called Vmax is the rate approached at saturating substrate. As usually defined, the kcat is the number of substrate molecules converted per active site and unit of time at saturation. For orientation: kcat/Km means the second-order rate constant that governs catalysis at low substrate concentration.

For one data set, the target named is T1, YtfE (Escherichia coli, UniProt P69506).
T1 construct: C-terminal His tag (pGS2618, pET24a derivative), expressed in E. coli BL21 (DE3)-T1R, purified anaerobically; di-iron holo form, 26,154 Da, monomer
The data set is described as follows: initial rates of DTT-mediated reduction of air-exposed YtfE (A340 nm), binding isotherm. It is filed as biochemical. The following applies: air-exposed (oxidized) YtfE ~90 μM; DTT 0 to 80 mM; reductant; apparent value from rates. From the text:
initial rates of DTT-mediated reduction of air-exposed YtfE (A340 nm), binding isotherm on YtfE | fitted using a simple binding isotherm, from which a Kd was obtained

Substrate in the data set “purified protein”: O=NO
Kind of data set: purified protein. Type of data set: biochemical, Escherichia coli. The settings on record: di-ferrous YtfE 10 μM, reductant dithionite-reduced methyl viologen 58 μM, pH 7.5, 100 mM Tris, anaerobic.

`OC(CS)C(O)CS` (stereo not drawn) [DTT]: at YtfE, the Kd worked out at 7.3 mM.

B1: YtfE (Escherichia coli K-12) (protein)
chain: MAYRDQPLGELALSIPRASALFRKYDMDYCCGGKQTLARAAARKELDVEVIEAELAKLAEQPIEKDWRSAPLAEIIDHIIVRYHDRHREQLPELILQATKVERVHADKPSVPKGLTKYLTMLHEELSSHMMKEEQILFPMIKQGMGSQAMGPISVMESEHDEAGELLEVIKHTTNNVTPPPEACTTWKAMYNGINELIDDLMDHISLENNVLFPRALAGE
notes: C-terminal His tag (pGS2618, pET24a derivative), expressed in E. coli BL21 (DE3)-T1R, purified anaerobically; di-iron holo form, 26,154 Da, monomer
Take B1: in the data set “purified protein”, the Km is 252 (± 32) μM, the Vmax worked out at 1.33 µmol/min/mg, the kcat turned out to be 0.58 ± 0.0265 s⁻¹ and the kcat/Km is 2300 ± 105 M⁻¹ s⁻¹.

B2: YtfE (Escherichia coli K-12; C30A/C31A) (protein)
chain: MAYRDQPLGELALSIPRASALFRKYDMDYAAGGKQTLARAAARKELDVEVIEAELAKLAEQPIEKDWRSAPLAEIIDHIIVRYHDRHREQLPELILQATKVERVHADKPSVPKGLTKYLTMLHEELSSHMMKEEQILFPMIKQGMGSQAMGPISVMESEHDEAGELLEVIKHTTNNVTPPPEACTTWKAMYNGINELIDDLMDHISLENNVLFPRALAGE
notes: as for B1
In the case of B2, in the data set “purified protein”, the Km was 288 (± 29) μM, the Vmax is 1.59 µmol/min/mg, the kcat was found to be 0.693 ± 0.0263 s⁻¹ and the kcat/Km amounted to 2410 ± 91.7 M⁻¹ s⁻¹.

The record behind these values is PMC9052748, “The Di-Iron Protein YtfE Is a Nitric Oxide-Generating Nitrite Reductase Involved in the Management of Nitrosative Stress” (Journal of the American Chemical Society, 2022).
